Data: patent publication US20200040058A1 (JULIUS MAXIMILIANS UNIVERSIT T W RZBURG, published 2020)

Experiments:
[1] = target: T1, Recombinant aggregated ROR1 protein, AlexaFluor647-labeled (UniProt Q01973 30-403, limits assumed, labeled with AlexaFluor647); assay: flow cytometry; CAR T cells stained with 5.3 µg/ml AlexaFluor647-labeled aggregated ROR1
T1 construct: Soluble labelled protein used to stain CAR T cells; also called ROR1 antigen
Protocol: Afterwards the cells were washed with PBS, 0.25% FCS and analyzed by flow cytometry.
Recombinant aggregated ROR1 protein was labeled with the AlexaFluor647 labeling kit (ThermoFisher Scientific, MA) and used to stain T cells expressing ROR1 CARs. The T cells were washed once in PBS, 0.25% FCS and then resuspended in the same buffer containing a final concentration of 5.3 μg/ml labeled ROR1 protein and monoclonal αEGFRt antibody. After an incubation time of 15 min the cells were washed with an excess of PBS, 0.25% FCS and analyzed by flow cytometry.

[2] = target: ROR1 on ROR1-positive target cells (K562-ROR1, MDA-MB-231, A549) (human, UniProt Q01973 30-937); assay: cell-based or functional assay
ROR1 on ROR1-positive target cells (K562-ROR1, MDA-MB-231, A549), sequence (Q01973 30-937): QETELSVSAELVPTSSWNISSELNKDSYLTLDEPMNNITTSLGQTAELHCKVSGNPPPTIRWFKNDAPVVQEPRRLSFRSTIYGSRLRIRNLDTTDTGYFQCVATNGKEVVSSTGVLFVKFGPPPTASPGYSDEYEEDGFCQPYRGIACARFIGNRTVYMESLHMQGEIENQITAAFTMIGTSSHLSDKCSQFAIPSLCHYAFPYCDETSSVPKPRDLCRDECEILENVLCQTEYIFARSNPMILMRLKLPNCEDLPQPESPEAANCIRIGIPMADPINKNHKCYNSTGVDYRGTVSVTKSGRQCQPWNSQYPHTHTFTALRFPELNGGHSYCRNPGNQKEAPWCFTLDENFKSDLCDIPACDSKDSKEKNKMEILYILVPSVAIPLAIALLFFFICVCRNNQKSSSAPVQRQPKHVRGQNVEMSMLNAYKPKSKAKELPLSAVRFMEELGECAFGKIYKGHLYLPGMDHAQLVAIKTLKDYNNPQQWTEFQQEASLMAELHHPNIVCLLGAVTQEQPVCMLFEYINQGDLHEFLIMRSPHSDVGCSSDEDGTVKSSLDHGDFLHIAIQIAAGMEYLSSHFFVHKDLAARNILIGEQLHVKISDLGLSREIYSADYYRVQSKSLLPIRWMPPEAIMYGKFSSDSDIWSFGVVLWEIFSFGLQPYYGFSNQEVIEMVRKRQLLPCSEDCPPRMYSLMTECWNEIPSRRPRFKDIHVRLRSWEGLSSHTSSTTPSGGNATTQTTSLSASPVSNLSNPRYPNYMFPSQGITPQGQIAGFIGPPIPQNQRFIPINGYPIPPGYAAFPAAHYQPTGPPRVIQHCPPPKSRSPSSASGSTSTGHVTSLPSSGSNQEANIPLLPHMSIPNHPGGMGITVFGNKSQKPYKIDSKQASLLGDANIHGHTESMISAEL

T1 sequence (Q01973 30-403 limits assumed): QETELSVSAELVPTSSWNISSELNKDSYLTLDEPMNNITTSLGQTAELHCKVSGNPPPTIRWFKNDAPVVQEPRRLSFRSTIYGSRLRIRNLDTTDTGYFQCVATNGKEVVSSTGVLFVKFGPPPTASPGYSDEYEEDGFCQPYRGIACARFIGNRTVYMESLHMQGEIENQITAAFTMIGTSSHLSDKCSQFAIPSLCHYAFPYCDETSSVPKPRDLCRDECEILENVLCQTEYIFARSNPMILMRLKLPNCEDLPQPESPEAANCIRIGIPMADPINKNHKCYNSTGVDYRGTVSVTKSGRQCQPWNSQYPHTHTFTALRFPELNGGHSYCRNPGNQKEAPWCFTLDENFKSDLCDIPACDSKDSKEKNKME

Binder | percentage of T cells with a distinct AlexaFluor647 signal [1] [%] | percentage of T cells with high AlexaFluor647 signal [1] [%] | proliferation index with MDA-MB-231 target cells, fold against the non-humanized R12 CAR [2] [fold]
non-humanized R12 ROR1 CAR (other, Chimeric antigen receptor on primary human T cells; also called R12 CAR; non-humanized R12 CAR; not shown: spacer, transmembrane, 4-1BB and CD3z parts of the non-humanized CAR are not spelled out; construct described only by re) QEQLVESGGRLVTPGGSLTLSCKASGFDFSAYYMSWVRQAPGKGLEWIATIYPSSGKTYYATWVNGRFTISSDNAQNTVDLQMNSLTAADRATYFCARDSYADDGALFNIWGPGTLVTISSGGGGSGGGGSGGGGSELVLTQSPSVSAALGSPAKITCTLSSAHKTDTIDWYQQLQGEAPRYLMQVQSDGSYTKRPGVPDRFSGSSSGADRYLIIPSVQADDEADYYCGADYIGGYVFGGGTQLTVTG | 47.6 | 0.7 | 
humanized R12 ROR1 CAR (other, Chimeric antigen receptor with an scFv targeting domain, on primary human T cells; also called hR12 CAR; hR12) QVQLVESGGALVQPGGSLTLSCKASGFDFSAYYMSWVRQAPGKGLEWIATIYPSSGKTYYAASVQGRFTISADNAKNTVYLQMNSLTAADTATYFCARDSYADDGALFNIWGQGTLVTVSSGGGGSGGGGSGGGGSQLVLTQSPSVSAALGSSAKITCTLSSAHKTDTIDWYQQLAGQAPRYLMYVQSDGSYEKRSGVPDRFSGSSSGADRYLIISSVQADDEADYYCGADYIGGYVFGGGTQLTVGESKYGPPCPPCPMFWVLVVVGGVLACYSLLVTVAFIIFWVKRGRKKLLYIFKQPFMRPVQTTQEEDGCSCRFPEEEEGGCELRVKFSRSADAPAYQQGQNQLYNELNLGRREEYDVLDKRRGRDPEMGGKPRRKNPQEGLYNELQKDKMAEAYSEIGMKGERRRGKGHDGLYQGLSTATKDTYDALHMQALPPR | 79 | 7.68 | ~2
humanized 2A2 ROR1 CAR (other, Chimeric antigen receptor with an scFv targeting domain, expressed on primary human T cells after lentiviral transduction; also called h2A2 CAR; h2A2) EVQLVQSGAEVKKPGASVKVSCKASGYTFSDYEMHWVRQAPGQGLEWLGAIDPETGGTAYNQKFKGRVTMTGDTSISTAYMELSRLTSDDTAVYYCTGYYDYDSFTYWGQGTLVSVSSGGGGSGGGGSGGGGSDIQMTQSPSSLSTSVGDRVTITCKASQNVDAAVAWYQQKPGKAPKLLIYSASNRYTGVASRFSGSGSGTDFTFTISSLQSEDLADYFCQQYDIYPYTFGQGTKLEIKESKYGPPCPPCPMFWVLVVVGGVLACYSLLVTVAFIIFWVKRGRKKLLYIFKQPFMRPVQTTQEEDGCSCRFPEEEEGGCELRVKFSRSADAPAYQQGQNQLYNELNLGRREEYDVLDKRRGRDPEMGGKPRRKNPQEGLYNELQKDKMAEAYSEIGMKGERRRGKGHDGLYQGLSTATKDTYDALHMQALPPR | 92.1 | 20 | 
non-humanized 2A2 ROR1 CAR (other, Chimeric antigen receptor on primary human T cells; also called 2A2 CAR; non-humanized 2A2 CAR; not shown: spacer, transmembrane, 4-1BB and CD3z parts of the non-humanized CAR are not spelled out; construct described only by re) QVQLQQSGAELVRPGASVTLSCKASGYTFSDYEMHWVIQTPVHGLEWIGAIDPETGGTAYNQKFKGKAILTADKSSSTAYMELRSLTSEDSAVYYCTGYYDYDSFTYWGQGTLVTVSAGGGGSGGGGSGGGGSDIVMTQSQKIMSTTVGDRVSITCKASQNVDAAVAWYQQKPGQSPKLLIYSASNRYTGVPDRFTGSGSGTDFTLTISNMQSEDLADYFCQQYDIYPYTFGGGTKLEIK | 62.7 | 2.61 | 
